We go through 2 substances from publication doi:10.1101/2023.05.22.541748.

One assay concerns the target Ubc13 (UniProt P61088). As to the kind of experiment: NMR titration.
A further assay has as its target Ubc13 C87K/K92T/K94Q (UniProt P61088). The assay is described as follows: NMR.

One may read the Kd as the concentration at which binding is half-saturated. High values mean lower affinity, low ones higher affinity.

Ubc13 C87K/K92T/K94Q, sequence (P61088 whole entry C87K/K92T/K94Q): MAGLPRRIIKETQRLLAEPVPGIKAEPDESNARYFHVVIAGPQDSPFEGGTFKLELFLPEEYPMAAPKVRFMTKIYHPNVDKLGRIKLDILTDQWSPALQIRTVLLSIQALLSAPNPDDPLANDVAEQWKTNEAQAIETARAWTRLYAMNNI
Ubc13, sequence (P61088 whole entry): as the sequence (P61088 whole entry C87K/K92T/K94Q) above, with K87C, T92K, Q94K counted along it

Turning to “RNF38 RING domain (residues 387-465) (domain or fragment)”, the Kd with Ubc13 worked out at 55 µM. In the assay with Ubc13 C87K/K92T/K94Q, “ubiquitin (wild type, Q40Ub) (from UniProt P0CG48 1-76) (natural protein)” came in with a population of the closed state of the conjugate of 60% and a population of the closed state of the conjugate with RNF38 RING of 80%.
